tested on: Escherichia coli TOP10; experiment: shrunken log2 fold change of peptide-encoding DNA abundance (4.5 h post-induction vs induction); higher = less antimicrobial activity (less host growth inhibition); details: time post-induction: 4.5 h; library: site-saturation at positions 5, 18, 19, 20
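Also: peptides expressed intracellularly from a pBAD plasmid library in pooled LB shake-flask culture, induced with 0.3% L-arabinose, DNA abundance read by NGS, three biological replicates, DESeq2 with apeglm shrinkage.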

Sequence	shrunken log2 fold change
RRIRPRPPRLPRPRPRPTYQPRP	-0.0514
RRIRRRPPRLPRPRPRPPQCPRP	1.55
RRIRFRPPRLPRPRPRPSLQPRP	-0.31
RRIRARPPRLPRPRPRPARNPRP	0.364
RRIRIRPPRLPRPRPRPWPNPRP	-0.0754
RRIRHRPPRLPRPRPRPPGKPRP	-0.155
RRIRCRPPRLPRPRPRPQSVPRP	-0.125
RRIRPRPPRLPRPRPRPTQRPRP	0.369
RRIRLRPPRLPRPRPRPPLVPRP	0.402
RRIRLRPPRLPRPRPRPPWVPRP	0.344
RRIRGRPPRLPRPRPRPSVPPRP	0.215
RRIRKRPPRLPRPRPRPQPDPRP	0.459
RRIRYRPPRLPRPRPRPKHIPRP	-0.66
RRIRFRPPRLPRPRPRPCGRPRP	0.156
RRIRVRPPRLPRPRPRPVWAPRP	0.394
RRIRKRPPRLPRPRPRPEYYPRP	-0.053
RRIRYRPPRLPRPRPRPGSKPRP	-0.0678
RRIRYRPPRLPRPRPRPMERPRP	0.0776
RRIRIRPPRLPRPRPRPKKFPRP	-0.666
RRIRNRPPRLPRPRPRPKMIPRP	-0.495
RRIRHRPPRLPRPRPRPRAKPRP	1.14
RRIRARPPRLPRPRPRPGTIPRP	-0.0682
RRIRYRPPRLPRPRPRPRGHPRP	-0.117
RRIRNRPPRLPRPRPRPHSHPRP	-0.472
RRIRQRPPRLPRPRPRPCSLPRP	-1.03

Sequence	shrunken log2 fold change
RRIRIRPPRLPRPRPRPIFGPRP	-0.164
RRIRIRPPRLPRPRPRPVWCPRP	0.148
RRIRARPPRLPRPRPRPWFGPRP	0.118
RRIRQRPPRLPRPRPRPLIYPRP	-0.457
RRIRVRPPRLPRPRPRPHIGPRP	-0.0312
RRIRMRPPRLPRPRPRPGLAPRP	1.51
RRIRGRPPRLPRPRPRPQKGPRP	0.0565
RRIRFRPPRLPRPRPRPYGPPRP	-0.266
RRIRVRPPRLPRPRPRPMQRPRP	-0.0413
RRIRTRPPRLPRPRPRPICTPRP	0.409
RRIRFRPPRLPRPRPRPPMKPRP	0.0021
RRIRERPPRLPRPRPRPCVYPRP	-0.33
RRIRMRPPRLPRPRPRPPPAPRP	2.14
RRIRIRPPRLPRPRPRPESLPRP	-0.23
RRIRCRPPRLPRPRPRPDGWPRP	0.378
RRIRIRPPRLPRPRPRPIYLPRP	-0.811
RRIRARPPRLPRPRPRPHNMPRP	-0.446
RRIRERPPRLPRPRPRPRMMPRP	-0.011
RRIRVRPPRLPRPRPRPSIGPRP	-0.197
RRIRERPPRLPRPRPRPIIDPRP	-0.0746
RRIRIRPPRLPRPRPRPKETPRP	-0.0675
RRIRIRPPRLPRPRPRPAIDPRP	-0.239
RRIRERPPRLPRPRPRPAFLPRP	-0.289
RRIRRRPPRLPRPRPRPSDEPRP	-0.0356
RRIRCRPPRLPRPRPRPYYWPRP	-0.992

Sequence	shrunken log2 fold change
RRIRLRPPRLPRPRPRPRIVPRP	-0.175
RRIRLRPPRLPRPRPRPRQHPRP	-0.0111
RRIRARPPRLPRPRPRPDIHPRP	0.145
RRIRARPPRLPRPRPRPRLGPRP	0.606
RRIRHRPPRLPRPRPRPSDYPRP	-0.343
RRIRTRPPRLPRPRPRPYVGPRP	-0.689
RRIRFRPPRLPRPRPRPMWCPRP	0.0155
RRIRMRPPRLPRPRPRPAPWPRP	0.807
RRIRKRPPRLPRPRPRPFKEPRP	-0.0549
RRIRIRPPRLPRPRPRPKISPRP	-0.3
RRIRDRPPRLPRPRPRPGGWPRP	0.975
RRIRDRPPRLPRPRPRPMLDPRP	-0.0254
RRIRARPPRLPRPRPRPTYLPRP	-0.023
RRIRERPPRLPRPRPRPVWEPRP	0.239
RRIRCRPPRLPRPRPRPGRYPRP	0.0533
RRIRYRPPRLPRPRPRPWSAPRP	-0.237
RRIRSRPPRLPRPRPRPYYSPRP	-0.318
RRIRLRPPRLPRPRPRPAQRPRP	0.172
RRIRIRPPRLPRPRPRPEPFPRP	0.126
RRIRLRPPRLPRPRPRPIELPRP	0.00435
RRIRCRPPRLPRPRPRPVRGPRP	0.59
RRIRQRPPRLPRPRPRPMICPRP	0.013
RRIRIRPPRLPRPRPRPLSLPRP	-0.868
RRIRNRPPRLPRPRPRPYWYPRP	-0.177
RRIRTRPPRLPRPRPRPACCPRP	0.263
